Experiments:
[1] = target: long-form human leptin receptor, OB-Rb (human) (UniProt P48357); experiment: binding of labelled leptin to HEK293 cells stably transfected with human OB-Rb
[2] = target: T1, rat C-reactive protein (rat, UniProt P48199 20-230); experiment: immunoprecipitation with anti-mouse leptin, western blot with anti-CRP
T1 construct: also called rat CRP; rat SLIP-1
T1 sequence (looked up): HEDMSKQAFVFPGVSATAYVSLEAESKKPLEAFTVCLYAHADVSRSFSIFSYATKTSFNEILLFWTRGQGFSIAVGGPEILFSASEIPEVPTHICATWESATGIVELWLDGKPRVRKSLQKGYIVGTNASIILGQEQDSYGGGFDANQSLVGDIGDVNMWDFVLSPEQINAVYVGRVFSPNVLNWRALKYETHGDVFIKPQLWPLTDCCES

[3] = target: T2, human leptin (SEQ ID NO:4) (human, UniProt P41159 22-167); experiment: derived from the IC50 of CRP against 125I-human leptin binding to OB-Rb HEK293 cells
T2 construct: Recombinant human leptin; also called recombinant human leptin
Protocol: (§1) 4. […] After 10 minute incubation at room temperature, the reaction was stopped with 100 μl 0.1% trifluoroacetic acid (TFA). The reaction mixture was immediately purified by reverse-phase HPLC. The separation employed a 5 minute isocratic step at 20% eluant B in A, followed by two consecutive 30 minute linear gradients from 20 to 50%, then from 50 to 60% eluant B in A (where eluant A is water containing 0. 1% TFA and eluant B is acetonitrile containing 0.1% TFA) at a flow rate of 1.5 ml/min. […] The incubation would last for 3 hours at 4° C. before the media was aspirated and the cells were dissolved in 0.1N NaOH for scintillation counting.

[4] = target: T3, mouse leptin (mouse), P41160; experiment: human CRP against mouse leptin (~2 ng/ml) binding to OB-Rb HEK293 cells (FIG. 3G); conditions: remark: other sources report otherwise
T3 chain: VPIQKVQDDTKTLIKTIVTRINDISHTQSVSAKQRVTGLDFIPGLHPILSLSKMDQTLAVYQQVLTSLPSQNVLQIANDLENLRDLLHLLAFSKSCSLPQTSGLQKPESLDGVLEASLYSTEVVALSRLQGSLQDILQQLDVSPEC

[5] = target: T2, human leptin (SEQ ID NO:4); experiment: human CRP pre-incubated with 125I-human leptin (~2 ng/ml); inhibition of leptin binding to OB-Rb HEK293 cells, scintillation counting
Protocol: as §1

long-form human leptin receptor, OB-Rb (human), sequence (P48357 22-1165): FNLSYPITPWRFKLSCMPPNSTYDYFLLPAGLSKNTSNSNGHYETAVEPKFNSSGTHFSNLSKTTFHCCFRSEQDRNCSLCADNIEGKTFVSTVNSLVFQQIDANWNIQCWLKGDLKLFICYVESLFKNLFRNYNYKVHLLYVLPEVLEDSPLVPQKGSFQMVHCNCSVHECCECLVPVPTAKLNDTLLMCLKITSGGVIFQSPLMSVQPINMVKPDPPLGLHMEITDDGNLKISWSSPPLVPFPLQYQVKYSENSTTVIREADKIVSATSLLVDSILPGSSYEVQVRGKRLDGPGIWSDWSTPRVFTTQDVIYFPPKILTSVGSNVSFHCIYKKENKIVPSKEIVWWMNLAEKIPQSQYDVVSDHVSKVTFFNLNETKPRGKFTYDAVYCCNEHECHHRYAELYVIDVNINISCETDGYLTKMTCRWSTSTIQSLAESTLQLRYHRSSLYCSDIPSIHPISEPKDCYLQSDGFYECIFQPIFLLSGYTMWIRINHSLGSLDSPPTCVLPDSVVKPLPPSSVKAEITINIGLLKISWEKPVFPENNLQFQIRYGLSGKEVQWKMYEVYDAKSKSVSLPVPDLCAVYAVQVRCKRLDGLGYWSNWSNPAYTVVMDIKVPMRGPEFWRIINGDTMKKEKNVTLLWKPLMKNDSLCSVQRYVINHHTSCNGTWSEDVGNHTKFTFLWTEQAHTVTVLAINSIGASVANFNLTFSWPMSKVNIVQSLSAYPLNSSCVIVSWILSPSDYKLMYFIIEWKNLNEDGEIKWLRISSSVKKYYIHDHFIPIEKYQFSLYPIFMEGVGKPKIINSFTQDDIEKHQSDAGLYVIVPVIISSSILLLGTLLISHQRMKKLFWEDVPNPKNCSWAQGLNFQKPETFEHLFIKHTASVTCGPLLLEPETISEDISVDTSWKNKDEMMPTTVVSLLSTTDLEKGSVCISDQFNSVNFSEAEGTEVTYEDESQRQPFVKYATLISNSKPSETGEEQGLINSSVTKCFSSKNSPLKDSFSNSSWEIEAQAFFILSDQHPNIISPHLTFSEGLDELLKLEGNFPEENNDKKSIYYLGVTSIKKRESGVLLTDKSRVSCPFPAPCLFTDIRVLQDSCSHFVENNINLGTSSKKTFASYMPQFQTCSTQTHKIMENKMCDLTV

Molecule: human leptin (SEQ ID NO:4) (from UniProt P41159 22-167) (ligand)
- Kd [1]: 1 nM

B1: mouse leptin (ligand, UniProt P41160 22-167, looked up)
chain: VPIQKVQDDTKTLIKTIVTRINDISHTQSVSAKQRVTGLDFIPGLHPILSLSKMDQTLAVYQQVLTSLPSQNVLQIANDLENLRDLLHLLAFSKSCSLPQTSGLQKPESLDGVLEASLYSTEVVALSRLQGSLQDILQQLDVSPEC
notes: Recombinant; also called recombinant mouse leptin; murine leptin
- binding result [2]: binds

B2: human C-reactive protein (other, UniProt P02741 19-224, looked up)
chain: QTDMSRKAFVFPKESDTSYVSLKAPLTKPLKAFTVCLHFYTELSSTRGYSIFSYATKRQDNEILIFWSKDIGYSFTVGGSEILFEVPEVTVAPVHICTSWESASGIVEFWVDGKPRVRKSLKKGYTVGAEASIILGQEQDSFGGNFEGSQSLVGDIGNVNMWDFVLSPDEINTIYLGGPFSPNVLNWRALKYEVQGEVFTKPQLWP
notes: Human SLIP-1 from the leptin column was identified as human CRP; also called human CRP; CRP
- molecular ratio CRP:leptin at the IC50 [3]: 5.8 CRP:leptin (molar, CRP pentamer)
- IC50 [4]: > 64 µg/mL
- IC50 [5]: ~0.08 µg/mL

Reference: patent US20060206948A1 (UNIVERSITY OF PITTSBURGH OF THE COMMONWEALTH SYSTEM OF …, published 2006)
